Experimental data taken from the supplement of paper PMC10567573.
± gives the standard deviation.

Test: protein stability index of a GFP-peptide fusion (GPS, HEK-293T) (PSI 1-6); higher = more stable
[1] = treatment: DMSO, c terminus: a fixed tail appended
[2] = treatment: MLN4924 1 uM, 8 h, c terminus: a fixed tail appended
[3] = treatment: DMSO, c terminus: native
[4] = treatment: MLN4924 1 uM, 8 h, c terminus: native
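Further: 24-mer peptide tiles fused after GFP, lentivirally expressed, FACS-sorted into six equal bins by GFP/DsRed ratio, decoded by Illumina sequencing, PSI is the read-weighted mean bin number.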

Sequence: PNTYYEGGYFKARLKFPIDYPYSP [CDC34]
- protein stability index [1]: 2.32 ± 0.17
- protein stability index [2]: 2.39 ± 0.21

Sequence: SSARIPKCPWMEGGEMSPQVETSI [INTS4]
- protein stability index [1]: 3.9 ± 0.14
- protein stability index [2]: 4.12 ± 0.1

Sequence: DLISKSFQGSQGRAYLFNSVVNVG [YPEL3]
- protein stability index [1]: 2.16 ± 0.22
- protein stability index [2]: 2.11 ± 0.19

Sequence: GLSAEDGVWAVIISHQQCWASTSP [TRIM15]
- protein stability index [1]: 2.88 ± 0.51
- protein stability index [2]: 2.39 ± 0.73

Sequence: LENDTISKQLTLEQLRREKIDLEN [CCDC6]
- protein stability index [1]: 4.96 ± 0.27
- protein stability index [2]: 4.88 ± 0.23

Sequence: SMRLLESKKGLSFFAFEHSEEYQQ [TCF25]
- protein stability index [1]: 3.35 ± 0.12
- protein stability index [2]: 3.3 ± 0.16

Sequence: KLWNPRNFKAHVSPHEMLQAVVLC [USP39]
- protein stability index [1]: 2.63 ± 0.57
- protein stability index [2]: 2.88 ± 0.47

Sequence: ASLGEKRDHHSTHYRASEEEPEYG [CHGB]
- protein stability index [1]: 5.37 ± 0.24
- protein stability index [2]: 5.34 ± 0.11

Sequence: TAGLLREQVAQLKQKVMTHVSNGC [JUNB]
- protein stability index [1]: 3.25 ± 0.2
- protein stability index [2]: 3.25 ± 0.32

Sequence: TMLTVIEQPVPPTPATPEDPAPLW [EMID1]
- protein stability index [1]: 3.76 ± 0.28
- protein stability index [2]: 3.77 ± 0.23

Sequence: TSPLTAEKLCIYTDNSIKPQELLE [CCND2]
- protein stability index [1]: 4.05 ± 0.23
- protein stability index [2]: 4.08 ± 0.27

Sequence: LKQLLTETDVWFSKQRKDFEGMAF [GMCL1]
- protein stability index [1]: 2.7 ± 0.48
- protein stability index [2]: 2.52 ± 0.19

Sequence: AAKFPSGSQRARVVNTDHGSPEQL [SDE2]
- protein stability index [1]: 4.56 ± 0.44
- protein stability index [2]: 4.81 ± 0.17

Sequence: CYDVYSPDKEEQLPFGPFNGTAWT [PKD2L1]
- protein stability index [1]: 2.75 ± 0.14
- protein stability index [2]: 2.59 ± 0.12

Sequence: GELVLATAISSFTRHVFTCGRRGI [TLE6]
- protein stability index [1]: 2.37 ± 0.31
- protein stability index [2]: 2.52 ± 0.52

Sequence: TLASAGGPDNLVLLNPEKYKAKSR [ADD1]
- protein stability index [1]: 4.22 ± 0.22
- protein stability index [2]: 4.31 ± 0.2

Sequence: MSLLHLGALYGITLIPTCKFYTWL [SCD]
- protein stability index [1]: 3.01 ± 0.57
- protein stability index [2]: 3.74 ± 0.94

Sequence: LMRTCERLVKEGRFVPSNPIGILT [PPTC7]
- protein stability index [1]: 2.65 ± 0.17
- protein stability index [2]: 2.53 ± 0.23

Sequence: PEGGMEQALAGASSGRELGRPKEL [ZNF263]
- protein stability index [1]: 4.92 ± 0.11
- protein stability index [2]: 5.29 ± 0.17

Sequence: YESDSSNHCMLSPSSSGHLADSDT [C18orf25]
- protein stability index [1]: 5.18 ± 0.33
- protein stability index [2]: 5.28 ± 0.21

Sequence: KMDFKTNILLKNLVTIARKASLWQ [TRIM43]
- protein stability index [1]: 2.7 ± 0.49
- protein stability index [2]: 2.62 ± 0.92

Sequence: SDFEWLKNELERDSKIVVPPLPGK [SNX12]
- protein stability index [1]: 4.07 ± 0.32
- protein stability index [2]: 4.13 ± 0.14

Sequence: VHTGCHKKLGPEARRPRTRWGKN
- protein stability index [3]: 2.8 ± 0.5
- protein stability index [4]: 3.08 ± 0.69

Sequence: LQWKSSHFERRDNMNDNFLEGEEE [CHGB]
- protein stability index [1]: 5.36 ± 0.44
- protein stability index [2]: 5.49 ± 0.23

Sequence: QKDSYQPPGNVYWPLRGKREAMLE [SPAG8]
- protein stability index [1]: 3.58 ± 0.31
- protein stability index [2]: 3.62 ± 0.41

Sequence: SSVSDVKFSHSGRYMLTRDYLTVK [PPP2R2C]
- protein stability index [1]: 2.88 ± 0.24
- protein stability index [2]: 2.87 ± 0.39

Sequence: FRVTLWVHPFVNYNSSRFGEGVER [MYORG]
- protein stability index [1]: 2.77 ± 0.89
- protein stability index [2]: 2.62 ± 0.41

Sequence: AFTMAENLANCERLIEVEDMMVMG [SMTNL2]
- protein stability index [1]: 2.58 ± 0.35
- protein stability index [2]: 3.24 ± 0.34

Sequence: LGTDPTHVMGLYPDLLPTDYRKQL [VPS39]
- protein stability index [1]: 3.34 ± 0.36
- protein stability index [2]: 3.42 ± 0.41

Sequence: YKDTCHELDELQLCKNCFYLSNAR [ZMYND11]
- protein stability index [1]: 2.66 ± 0.31
- protein stability index [2]: 3.02 ± 0.25

Sequence: RLSVELTSSLFRTEPMAWNETADL [CTNNB1]
- protein stability index [1]: 2.83 ± 0.2
- protein stability index [2]: 3.03 ± 0.31

Sequence: FNNGAHMSLLPDKKTVHYYAELGQ [PLK2]
- protein stability index [1]: 2.92 ± 0.34
- protein stability index [2]: 2.66 ± 0.25

Sequence: MAVDKDTTNVGRYPVGRFPSLHVV [FEM1A]
- protein stability index [1]: 2.67 ± 0.3
- protein stability index [2]: 2.72 ± 0.34

Sequence: VERDNMEEDNVEESEEEGPWEPPV [HDAC6]
- protein stability index [1]: 5.58 ± 0.19
- protein stability index [2]: 5.25 ± 0.21

Sequence: GPWLEWEIMLQYCFPRLDINVSKG [PRIM1]
- protein stability index [1]: 2.4 ± 0.19
- protein stability index [2]: 2.88 ± 0.94

Sequence: TFQEPLYPALRLWEGAISIPRLP [TRIM14]
- protein stability index [3]: 2.65 ± 0.62
- protein stability index [4]: 2.67 ± 0.66

Sequence: AIAPFQSAGSPPELQGLPELHEEC [NET1]
- protein stability index [1]: 4.99 ± 0.33
- protein stability index [2]: 4.85 ± 0.14
